Source: patent publication US20260232732A1 (FUNDACI INSTITUT DE RECERCA CONTRA LA LEUC MIA JOSEP …, published 2026)
Values belong to the binder of their own block, whether it stands above or below them. Where no end group is shown, it is not given here. The star is where a group is joined. Biotin = O=C1N[C@H]2[C@H](CS[C@H]2CCCCC(=O)*)N1

Assays:
[1] = target: T1, biotin-peptide DYGSESTSSM (human); assay: ELISA, biotin-peptide
T1 peptide: Biotin-DYGSESTSSM

[2] = target: T2, biotin-peptide TSPIPNMADD (human); assay: ELISA, biotin-peptide
T2 peptide: Biotin-TSPIPNMADD

[3] = target: T3, biotin-peptide YVNFNFTDFY (human); assay: ELISA, biotin-peptide
T3 peptide: Biotin-YVNFNFTDFY

[4] = target: T4, biotin-peptide YCEKNNVRQF (human); assay: ELISA, biotin-peptide
T4 peptide: Biotin-YCEKNNVRQF

[5] = target: T5, biotin-peptide TDFYCEKNNV (human); assay: ELISA, biotin-peptide
T5 peptide: Biotin-TDFYCEKNNV

[6] = target: T6, naked peptide TDFTSPIPNM (human); assay: ELISA, naked peptide
T6 peptide: TDFTSPIPNM

[7] = target: T7, naked peptide SMEDYVNFNF (human); assay: ELISA, naked peptide
T7 peptide: SMEDYVNFNF

[8] = target: T8, naked peptide MADDYGSEST (human); assay: ELISA, naked peptide
T8 peptide: MADDYGSEST

[9] = target: T9, naked peptide YVNFNFTDFY (human); assay: ELISA, naked peptide
T9 peptide: YVNFNFTDFY

[10] = target: T10, naked peptide FNFTDFYCEK (human); assay: ELISA, naked peptide
T10 peptide: FNFTDFYCEK

[11] = target: T11, naked peptide TDFYCEKNNV (human); assay: ELISA, naked peptide
T11 peptide: TDFYCEKNNV

[12] = target: T12, naked peptide KNNVRQFAS (human); assay: ELISA, naked peptide
T12 peptide: KNNVRQFAS

[13] = target: T13, naked peptide MEDYVNFNFT (human); assay: ELISA, naked peptide
T13 peptide: MEDYVNFNFT

[14] = target: T14, naked peptide YCEKNNVRQF (human); assay: ELISA, naked peptide
T14 peptide: YCEKNNVRQF

[15] = target: T15, naked peptide SESTSSMEDY (human); assay: ELISA, naked peptide
T15 peptide: SESTSSMEDY

[16] = target: T16, naked peptide IPNMADDYGS (human); assay: ELISA, naked peptide
T16 peptide: IPNMADDYGS

[17] = target: T17, naked peptide TSSMEDYVNF (human); assay: ELISA, naked peptide
T17 peptide: TSSMEDYVNF

[18] = target: T18, naked peptide SSMEDYVNFN (human); assay: ELISA, naked peptide
T18 peptide: SSMEDYVNFN

[19] = target: T19, naked peptide DYGSESTSSM (human); assay: ELISA, naked peptide
T19 peptide: DYGSESTSSM

[20] = target: T20, naked peptide MTPTDFTSPI (human); assay: ELISA, naked peptide
T20 peptide: MTPTDFTSPI

[21] = target: T21, naked peptide TSPIPNMADD (human); assay: ELISA, naked peptide
T21 peptide: TSPIPNMADD

[22] = target: T22, naked peptide 1a MTPTDFTSPIPNMADDYGSESTSS (human); assay: ELISA, naked peptide coated
T22 construct: also called region 1-24
T22 peptide: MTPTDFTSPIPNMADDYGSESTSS
Protocol: (§1) The peptides were synthesized naked or with a N-terminal Biotin modification with a purity of >98%. All four scFvs were verified by ELISA that can be detected with anti-His antibodies. ELISA was performed for scFv-peptide binding validation. Briefly, naked peptides were coated (50 μg/mL) in 0.58M carbonate-bicarbonate buffer pH9.5, 100 μL/well, 4° C. O/N. Then after blocking (3% BSA-PBS, 300 μL/well 37° C. 1.5 h) and washing (PBS+Tween-20 0.05% v/v (0.05% PBST), wells were incubated with each purified scFv antibody at concentration of 1 μg/mL in PBS at 37° C. 1 h. After washing (0.05% PBST), wells were incubated with secondary antibodies (goat anti-His IgG-HRP) in PBS, 37° C., 30 min. After washing, and incubation with TMB substrate, reactions were stopped with 2M HCl and reading was quantified at OD450.

[23] = target: T23, naked peptide 1b MEDYVNFNFTDFYCEKNNVRQFAS (human); assay: ELISA, naked peptide coated
T23 construct: also called region amino acids 25 to 48
T23 peptide: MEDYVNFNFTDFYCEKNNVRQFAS
Protocol: as §1

[24] = target: T24, Peptide 2, non-conjugated (GSESTSSMED-C) (human); assay: ELISA; Ab 0.125 ug/mL; repI
T24 construct: With the extra C-terminal Cys
T24 peptide: GSESTSSMEDC
Protocol: (§2) In brief, plates with each non-conjugated peptide (50 μg/mL) or BSA-conjugated peptide (5 μg/mL) were coated in 0.58M carbonate-bicarbonate buffer pH9.5, 100 μL/well, at 4° C. […] After washing, wells were incubated with the 3, 3′,5,5′-Tetramethylbenzidine (TMB) HRP substrate and reactions were stopped with 2M HCl and OD450 was recorded.

[25] = target: T25, BSA (negative control coating) (bovine, UniProt P02769 25-607); assay: ELISA; Ab 0.125 ug/mL; repI
T25 construct: also called Negative control BSA
T25 sequence (P02769 25-607 limits assumed): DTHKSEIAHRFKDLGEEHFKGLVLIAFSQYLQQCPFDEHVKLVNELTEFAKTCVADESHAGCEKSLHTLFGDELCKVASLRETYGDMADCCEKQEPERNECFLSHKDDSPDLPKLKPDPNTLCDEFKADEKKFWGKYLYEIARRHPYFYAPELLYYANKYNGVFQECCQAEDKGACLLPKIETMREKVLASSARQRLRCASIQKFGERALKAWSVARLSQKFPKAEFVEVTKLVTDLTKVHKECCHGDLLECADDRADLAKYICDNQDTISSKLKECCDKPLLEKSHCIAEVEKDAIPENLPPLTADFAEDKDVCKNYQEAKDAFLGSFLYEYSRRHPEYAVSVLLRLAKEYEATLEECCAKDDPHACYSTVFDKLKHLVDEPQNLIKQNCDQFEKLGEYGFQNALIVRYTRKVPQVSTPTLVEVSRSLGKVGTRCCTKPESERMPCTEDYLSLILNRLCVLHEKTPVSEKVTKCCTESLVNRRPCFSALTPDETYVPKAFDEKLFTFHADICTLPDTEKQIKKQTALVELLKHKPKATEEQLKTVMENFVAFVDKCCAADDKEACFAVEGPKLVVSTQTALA
Protocol: as §2

[26] = target: T26, Peptide 1, non-conjugated (MADDYGSEST-C) (human); assay: ELISA; Ab 0.125 ug/mL; repI
T26 construct: With the extra C-terminal Cys
T26 peptide: MADDYGSESTC
Protocol: as §2

[27] = target: T27, antigen peptide-BSA (immunisation peptide #1 MADDYGSESTSSMEDYVNFNF-C conjugated to BSA) (human, extra C-terminal Cys conjugated to BSA); assay: ELISA; Ab 0.125 ug/mL; repI
T27 construct: also called Positive control antigen peptide-BSA; MADDY peptide
T27 peptide: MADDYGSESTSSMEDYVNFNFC
Protocol: as §2

[28] = target: T28, Peptide 1-BSA (MADDYGSEST-C conjugated to BSA) (human); assay: ELISA; Ab 0.125 ug/mL; repI
T28 peptide: MADDYGSESTC(BSA)
Protocol: as §2

[29] = target: T29, Peptide 4, non-conjugated (SMEDYVNFNF-C) (human); assay: ELISA; Ab 0.125 ug/mL; repI
T29 construct: With the extra C-terminal Cys
T29 peptide: SMEDYVNFNFC
Protocol: as §2

[30] = target: T30, Peptide 3, non-conjugated (SSMEDYVNFN-C) (human); assay: ELISA; Ab 0.125 ug/mL; repI
T30 construct: With the extra C-terminal Cys
T30 peptide: SSMEDYVNFNC
Protocol: as §2

[31] = target: T31, Peptide 3-BSA (SSMEDYVNFN-C conjugated to BSA) (human); assay: ELISA; Ab 0.125 ug/mL; repI
T31 peptide: SSMEDYVNFNC(BSA)
Protocol: as §2

[32] = target: T32, Peptide 4-BSA (SMEDYVNFNF-C conjugated to BSA) (human); assay: ELISA; Ab 0.125 ug/mL; repI
T32 peptide: SMEDYVNFNFC(BSA)
Protocol: as §2

[33] = target: T33, Peptide 2-BSA (GSESTSSMED-C conjugated to BSA) (human); assay: ELISA; Ab 0.125 ug/mL; repI
T33 peptide: GSESTSSMEDC(BSA)
Protocol: as §2

binding result [1]: no binding (tested: 10 ug/mL)
binding result [2]: no binding (tested: 10 ug/mL)
binding result [3]: no binding (tested: 10 ug/mL)
binding result [4]: no binding (tested: 10 ug/mL)
binding result [5]: no binding (tested: 10 ug/mL)
binding result [6]: no binding (tested: 1 ug/mL)
binding result [7]: no binding (tested: 1 ug/mL)
binding result [8]: no binding (tested: 1 ug/mL)
binding result [9]: no binding (tested: 1 ug/mL)
binding result [10]: no binding (tested: 1 ug/mL)
binding result [11]: no binding (tested: 1 ug/mL)
binding result [12]: no binding (tested: 1 ug/mL)
binding result [13]: no binding (tested: 1 ug/mL)
binding result [14]: no binding (tested: 1 ug/mL)
binding result [15]: no binding (tested: 1 ug/mL)
binding result [16]: no binding (tested: 1 ug/mL)
binding result [17]: no binding (tested: 1 ug/mL)
binding result [18]: no binding (tested: 1 ug/mL)
binding result [19]: no binding (tested: 1 ug/mL)
binding result [20]: no binding (tested: 1 ug/mL)
binding result [21]: no binding (tested: 1 ug/mL)
binding result [22]: no binding
binding result [23]: no binding
B1: Comparative antibody 1 (Comp-1) scFv, SEQ ID NO: 10 from WO2023/037125 A1, His-tagged (scFv)
scFv: QVQLKESGPGLVQPSQTLSLTCTVSGFSVASYDMHWVRLPPGKGLEWMGIIWANGNTHYNSGLKSRLSISRDTSKSQVFLKMNSLQTEDTAIYFCTRGGFAYWGQGTLVTVSSGGGGSGGGGSGGGGSGGGGSDVVMTQTPVSLSVSLGGQVSISCRSSQSLVHNNGNTYLSWYLQKPGQSPQLLIYKVSNRFSGVSDRFSGSGSGTDFTLKISRVEPDDLGVYYCGQGTQYPTFGGGTKLELKHHHHHH

OD450 [24]: 0.01 OD
OD450 [25]: 0.01 OD
OD450 [26]: 0.01 OD
OD450 [27]: 2.15 OD
OD450 [28]: 0.02 OD
OD450 [29]: 1.69 OD
OD450 [30]: 1.77 OD
OD450 [31]: 1.97 OD
OD450 [32]: 2.23 OD
OD450 [33]: 0.01 OD
B2: anti-CCR9 antibody clone 115 (murine, from hybridoma #115) (antibody, V domains shown)
VH: QVQLKQSGPELVKPGTSVRVSCTASGYSFTDYIIYWVKQSHGRSLEWIGYIDPNNYNTRYSQKFKGKATLTVDKSSTSAFMHLNSLTSDDSAVYYCARDVYWGQGTTLTVSS
VL: DVVMTQTPLSLTVSLGDQASISCRSSQSLVHSNGKTYLQWYLQKPGQSPKLLIYKVSNRFSGVPDRFSGSGSGTDFTLKISRVEAEDLGVYFCAQSTHVWTFGGGTKLEIKR
notes: Mouse IgG1
